Assays:
[1] = target: T1, PcrV of P. aeruginosa strain PA103 (on TTSS-induced bacteria) (Pseudomonas aeruginosa strain PA103); assay: cell-based or functional assay
[2] = target: T1, PcrV of P. aeruginosa strain PA103 (on …); assay: cell-based or functional assay; remark: listed apart in the source
[3] = target: T1, PcrV of P. aeruginosa strain PA103 (on …); assay: cell-based or functional assay; remark: listed apart in the source
[4] = target: Full length PcrV (aa 1-294), C-terminal c-myc and His6 tags (Pseudomonas aeruginosa strain PAO1); assay: ELISA, binder coated
[5] = target: T1, PcrV of P. aeruginosa strain PA103 (on …); assay: cell-based or functional assay; remark: listed apart in the source
[6] = target: T1, PcrV of P. aeruginosa strain PA103 (on …); assay: cell-based or functional assay; remark: listed apart in the source
[7] = target: T2, recombinant PcrV protein (rPcrV), strain PAO1, amino acid residues 1-294, C-terminal His6 (Pseudomonas aeruginosa strain PAO1); assay: ELISA, periplasmic extract on biotinylated rPcrV
[8] = target: T2, recombinant PcrV protein (rPcrV), …; assay: SPR ProteOn, periplasmic extract on immobilised rPcrV
[9] = target: T3, PcrV fragment (aa 144-257), C-terminal c-myc and His6 tags (Pseudomonas aeruginosa); assay: ELISA, binder coated; NB = binding signal = background signal
T3 construct: also called small PcrV fragment

[10] = target: GST-PcrV (strain PAO1, amino acid residues 1-294) (Pseudomonas aeruginosa strain PAO1); assay: SPR Biacore T100, GST-PcrV immobilised
Throughout, for cytotox assay (% inhibition), P3X63, PA103: test concentration or dose not given here.

B1: Nanobody 335 (5H01-40GS-1E11) (VHH)
chain: EVQLVESGGGLVQPGGSLRLSCAASGSTLDYYAIGWFRQAPGKEREGVSCTSNSGSTYYGGSVKGRFTASRDNAKNTVYLQMNSLRPEDTAVYYCVATIGCATLGGTLDVQRYYYRGQGTLVTVSSGGGGSGGGGSGGGGSGGGGSGGGGSGGGGSGGGGSGGGGSEVQLVESGGGLVQPGGSLRLSCAASGSTRSVNPMAWFRQAPGRQREWVATISRSGYATYADSVKGRFTISGDNAKSSVYLQMNSLKPEDTAVYYCVTGTYWGQGTLVTVSS
% inhibition in P3X63 cytotoxicity assay, extract 1/150 [1]: 46% | Efficacy (%), P3X63 cytotoxicity, MOI 12 [2]: 100% | IC50 value (M), P3X63 cytotoxicity, MOI 12 [2]: 6.4e-11 M | Ratio (IC50 Fab 13.37/IC50 Nanobody), A549 cytotoxicity [3]: 1 fold

B2: Nanobody 6B05 (VHH)
VHH: EVQLVESGGGLVQPGGSLRLSCAASGSIFSINTMGWYRQAPGKQRELVSTITSNLVPHYADSVQGRFTISRDNARNTVYLQMNSLKPQDTAHYYCNAWARSSGATPYTNYWGQGTLVTVSS
notes: also called 06B05
binding result [4]: binds | cytotox assay (% inhibition), P3X63, PA103 [5]: 32% | % inhibition, P3X63 cytotoxicity assay, MOI 3 [6]: 100% | IC50 (nM), P3X63 cytotoxicity assay, MOI 3 [6]: 435 nM | binding ELISA (OD 450 nm) [7]: 2.55 OD 450 nm | koff [8]: 0.00018 s⁻¹

B3: Nanobody 1E11 (VHH)
VHH: EVQLVESGGGLVQPGGSLRLSCAASGSTRSVNPMAWFRQAPGRQREWVATISRSGYATYADSVKGRFTISGDNAKSSVYLQMNSLKPEDTAVYYCVTGTYWGQGTLVTVSS
notes: also called 01E11
binding result [4]: binds | cytotox assay (% inhibition), P3X63, PA103 [5]: 33% | % inhibition, P3X63 cytotoxicity assay, MOI 4 [6]: 58% | IC50 (nM), P3X63 cytotoxicity assay, MOI 4 [6]: 23 nM | binding ELISA (OD 450 nm) [7]: 2.56 OD 450 nm | koff [8]: 0.00035 s⁻¹

B4: Nanobody 13F07 (VHH)
VHH: EVQLVESGGGLVQAGGSLRLSCAASGNTFSTNPMYWYRQAEGKQRELVASISSRGITNYADSVRGRFSISRDNTKDTVYLQMNSLKPEDTAVYYCRLASLSSGTVYWGKGTLVTVSS
binding result [4]: binds | cytotox assay (% inhibition), P3X63, PA103 [5]: 13% | % inhibition, P3X63 cytotoxicity assay, MOI 1.5 [6]: > 20% | IC50 (nM), P3X63 cytotoxicity assay, MOI 1.5 [6]: 35600 nM | koff [8]: 0.00092 s⁻¹ | binding result [9]: no binding

B5: Fab 13.37 (Fab, V domains shown)
VH: QVQLVESGGGVVQPGRSLRLSCAASGFTFSSYPLHWVRQAPGKGLEWVSFISYDGSEKYYASSVKGRFTISRDNSENTLYLQMNSLRPEDTAVYYCARNRGDIYYDFTYAMDIWGQGTMVTVSS
VL: DIQMTQSPSSLSASVGDRVTITCRASQSISRWVAWYQQRPGKAPNLLIYDASSLKSGVPSRFSGSGSGTEFTLTISSLQPEDIATYYCQQFWGTPYTFGQGTKLEIKR
binding result [4]: binds | % inhibition, P3X63 cytotoxicity assay, MOI 1.5 [6]: 100% | % inhibition, P3X63 cytotoxicity assay, MOI 3 [6]: 100% | % inhibition, P3X63 cytotoxicity assay, MOI 4 [6]: 100% | IC50 (nM), P3X63 cytotoxicity assay, MOI 1.5 [6]: 1 nM | IC50 (nM), P3X63 cytotoxicity assay, MOI 3 [6]: 1 nM | IC50 (nM), P3X63 cytotoxicity assay, MOI 4 [6]: 8 nM | Efficacy (%), P3X63 cytotoxicity, MOI 12 [2]: 100% | IC50 value (M), P3X63 cytotoxicity, MOI 12 [2]: 5.4e-10 M

B6: Nanobody 277 (5H01-40GS-11B09) (VHH)
chain: EVQLVESGGGLVQPGGSLRLSCAASGSTLDYYAIGWFRQAPGKEREGVSCTSNSGSTYYGGSVKGRFTASRDNAKNTVYLQMNSLRPEDTAVYYCVATIGCATLGGTLDVQRYYYRGQGTLVTVSSGGGGSGGGGSGGGGSGGGGSGGGGSGGGGSGGGGSGGGGSEVQLVESGGGLVQAGGSLRLSCAASRLTFNHYNMGWFRQAPGKERERVAEVTWSGDKIYYVDSVKGRFTISRDNTPNPVYLYLQMNSLKPEDTAVYYCATAPRGLPYANGYWGQGTLVTVSS
% inhibition in P3X63 cytotoxicity assay, extract 1/150 [1]: 85% | Efficacy (%), P3X63 cytotoxicity, MOI 12 [2]: 100% | IC50 value (M), P3X63 cytotoxicity, MOI 12 [2]: 1.3e-11 M | Ratio (IC50 Fab 13.37/IC50 Nanobody), A549 cytotoxicity [3]: 8 fold

B7: Nanobody 319 (13F07-40GS-6B05) (VHH)
chain: EVQLVESGGGLVQAGGSLRLSCAASGNTFSTNPMYWYRQAEGKQRELVASISSRGITNYADSVRGRFSISRDNTKDTVYLQMNSLKPEDTAVYYCRLASLSSGTVYWGKGTLVTVSSGGGGSGGGGSGGGGSGGGGSGGGGSGGGGSGGGGSGGGGSEVQLVESGGGLVQPGGSLRLSCAASGSIFSINTMGWYRQAPGKQRELVSTITSNLVPHYADSVQGRFTISRDNARNTVYLQMNSLKPQDTAHYYCNAWARSSGATPYTNYWGQGTLVTVSS
% inhibition in P3X63 cytotoxicity assay, extract 1/150 [1]: 46% | Efficacy (%), P3X63 cytotoxicity, MOI 12 [2]: 100% | IC50 value (M), P3X63 cytotoxicity, MOI 12 [2]: 8.1e-11 M | Ratio (IC50 Fab 13.37/IC50 Nanobody), A549 cytotoxicity [3]: 2 fold

B8: Nanobody 14E10 (VHH)
VHH: EVQLVESGGGLVQPGGSLRLSCAASGRIFSINTMGWYRQAPGKQRELVAGVTINAITNYADSVKGRFTISRDNAKNTVWLQMNSLKPEDTAVYYCHAWARSSGSAPYSQNWGQGTQVTVSS
binding result [4]: binds | cytotox assay (% inhibition), P3X63, PA103 [5]: 22% | % inhibition, P3X63 cytotoxicity assay, MOI 3 [6]: 100% | IC50 (nM), P3X63 cytotoxicity assay, MOI 3 [6]: > 3000 nM | koff [8]: 0.0006 s⁻¹ | binding result [9]: no binding

B9: Nanobody 5H01 (VHH)
VHH: EVQLVESGGGLVQPGGSLRLSCAASGSTLDYYAIGWFRQAPGKEREGVSCTSNSGSTYYGGSVKGRFTASRDNAKNTVYLQMNSLRPEDTAVYYCVATIGCATLGGTLDVQRYYYRGQGTQVTVSS
notes: also called 05H01
binding result [4]: binds | cytotox assay (% inhibition), P3X63, PA103 [5]: 76% | % inhibition, P3X63 cytotoxicity assay, MOI 4 [6]: 100% | IC50 (nM), P3X63 cytotoxicity assay, MOI 4 [6]: 7 nM | Kd [10]: 1 nM | koff [10]: 0.00014 s⁻¹ | kon [10]: 160000 M⁻¹ s⁻¹ | binding ELISA (OD 450 nm) [7]: 2.69 OD 450 nm | koff [8]: 4.9e-05 s⁻¹

B10: Nanobody 7E09 (VHH)
VHH: EVQLVESGGGLVQAGGSLRLSCAASGRTFSSYIMGWFRQAPGKAREFVADITWGQRPYYADSVKGRFTISRDNAKNTVYLEMNSLKPEDTAVYYCAADLGVVIREEHAYWGQGTLVTVSS
notes: also called 07E09
binding result [4]: binds | cytotox assay (% inhibition), P3X63, PA103 [5]: 16% | binding ELISA (OD 450 nm) [7]: 2.59 OD 450 nm | koff [8]: 0.0004 s⁻¹ | binding result [9]: no binding

B11: Nanobody 2B10 (VHH)
VHH: EVQLVESGGGLVQPGGSLRLSCAASGSIFSINNMGWYRQAPGKQRELVTVVTSNLITTYADSVKGRFTISRDNAKNTVYLQMNSLKPEDTAVYYCNAWARSVGSVPYSQFWGQGTLVTVSS
notes: also called 02B10
binding result [4]: binds | cytotox assay (% inhibition), P3X63, PA103 [5]: 38% | % inhibition, P3X63 cytotoxicity assay, MOI 4 [6]: 100% | IC50 (nM), P3X63 cytotoxicity assay, MOI 4 [6]: 647 nM | Kd [10]: 0.5 nM | koff [10]: 0.00025 s⁻¹ | kon [10]: 510000 M⁻¹ s⁻¹ | binding ELISA (OD 450 nm) [7]: 2.57 OD 450 nm | koff [8]: 0.00018 s⁻¹

B12: Nanobody 275 (2G09-40GS-5H01) (VHH)
chain: EVQLVESGGGLVQPGGSLRLSCAASGSFGDNYELYAMTWFRQAPGERRDFVASVTGDGSTSYADSVKDRFTISRDNAKKLMYLQMNSLKPEDTAVYYCRLLNYWGQGTLVTVSSGGGGSGGGGSGGGGSGGGGSGGGGSGGGGSGGGGSGGGGSEVQLVESGGGLVQPGGSLRLSCAASGSTLDYYAIGWFRQAPGKEREGVSCTSNSGSTYYGGSVKGRFTASRDNAKNTVYLQMNSLRPEDTAVYYCVATIGCATLGGTLDVQRYYYRGQGTLVTVSS
% inhibition in P3X63 cytotoxicity assay, extract 1/150 [1]: 66% | Efficacy (%), P3X63 cytotoxicity, MOI 12 [2]: 100% | IC50 value (M), P3X63 cytotoxicity, MOI 12 [2]: 3.7e-09 M | Ratio (IC50 Fab 13.37/IC50 Nanobody), A549 cytotoxicity [3]: 1 fold

B13: Nanobody 285 (13F07-40GS-2B02) (VHH)
chain: EVQLVESGGGLVQAGGSLRLSCAASGNTFSTNPMYWYRQAEGKQRELVASISSRGITNYADSVRGRFSISRDNTKDTVYLQMNSLKPEDTAVYYCRLASLSSGTVYWGKGTLVTVSSGGGGSGGGGSGGGGSGGGGSGGGGSGGGGSGGGGSGGGGSEVQLVESGGGLVQPGDSLRLSCAASGRILSINNMVWYRQAPGKQRELVAHITSSGSTGYADSVKGRFTISRDNAKNTFYLQMTNLNPEDTAVYYCNCWVSSDSNAPLKNYWGQGTLVTVSS
% inhibition in P3X63 cytotoxicity assay, extract 1/150 [1]: 59% | Efficacy (%), P3X63 cytotoxicity, MOI 12 [2]: 100% | IC50 value (M), P3X63 cytotoxicity, MOI 12 [2]: 6.1e-11 M | Ratio (IC50 Fab 13.37/IC50 Nanobody), A549 cytotoxicity [3]: 1 fold
